Experimental data reported in patent US20160193316A1 (priority 1994, published 2016).

Legend:
HLA-A*1101 = HLA-A*1101 (Homo sapiens, UniProt P04439, A114D/D185E/E176A/F33Y/L180Q/S129P/T187R); test: HLA class I peptide binding assay; conditions: Table XVII
DRB1*1201 (DR5w12) = target: T1, DRB1*1201 (DR5w12) (Homo sapiens, UniProt P01903+P01911, A100R/A169T/D57E/D86V/F55L/H45Y/K41T/L162R/M171V/P40S/Q125H/Q178H/Q39Y/Q99D/R42G/S66L/T262R/V114A/V67L/W38E/Y59H/Y61H/Y89S); test: HLA class II peptide binding assay; conditions: for DR5w12 binding data: Table XIXb; for DR5w12 binding information: DR3a motif peptides, unit not given, exemplary 15-mer containing the core sequence
T1 construct: endogenous in cells; host or cells: Herluf

DRB1*0802 (DR8w2) = target: T2, DRB1*0802 (DR8w2) (Homo sapiens, UniProt P01903+P01911, A100R/A103L/A169T/F76Y/H45Y/I96F/K41T/L162R/M171V/P40S/Q125H/Q178H/Q39Y/Q99D/R218S/R42G/S66Y/V115G/W38E); test: biochemical; type: binding
T2 construct: endogenous in cells; host or cells: OLL

DRB4*0101 (DRw53) = target: T3, DRB4*0101 (DRw53) (Homo sapiens, UniProt P01903+P13762, G164S); test: HLA class II peptide binding assay (pH 5.0); conditions: for DRw53 binding data: Table XIXb; for DRw53 binding information: DR3a motif peptides, unit not given, exemplary 15-mer containing the core sequence
T3 construct: expressed in transfected cells; host or cells: L257.6 (fibroblasts)

DRB1*0401 (DR4w4) = target: T4, DRB1*0401 (DR4w4) (Homo sapiens, UniProt P01903+P01911, A100K/A169T/F76Y/I96L/K127E/L162R/M171V/N62H/P40V/Q125Y/R42H/S133A/S149N/S66Y/V115G/V209L/W38E); test: HLA class II peptide binding assay; conditions: for DR4w4 binding data: Table XIXb; for DR4w4 binding information: DR3a motif peptides, unit not given, exemplary 15-mer containing the core sequence
T4 construct: endogenous in cells; host or cells: Preiss

DRB1*0101 (DR1) = target: T5, DRB1*0101 (DR1) (Homo sapiens, UniProt P01903+P01911, A100R/D57E/F55L/F60I/F76Y/I96L/L162R/M171V/P40L/Q125E/R42F/V115G/Y59C); test: HLA class II peptide binding assay; conditions: for DR1 binding data: Table XIXb, Malaria Super Motif Peptides With Binding Data; for DR1 binding information: DR3a motif peptides, unit not given, exemplary 15-mer containing the core sequence
T5 construct: endogenous in cells; host or cells: LG2

DRB1*1101 (DR5w11) = target: T6, DRB1*1101 (DR5w11) (Homo sapiens, UniProt P01903+P01911, A100R/A169T/A87E/I96F/K41T/L162R/M171V/P40S/Q125H/Q178H/Q39Y/Q99D/R42S/S66Y/T262R/V115G/W38E); test: biochemical; type: binding
T6 construct: endogenous in cells; host or cells: Sweig

DRB5*0101 (DR2w2β2) = target: T7, DRB5*0101 (DR2w2β2) (Homo sapiens, UniProt P01903+Q30154); type: binding
T7 construct: expressed in transfected cells; host or cells: L416.3 (fibroblasts) or GM3107

DRB1*0701 (DR7) = target: T8, DRB1*0701 (DR7) (Homo sapiens, UniProt P01903+P01911, A100R/A102G/A103Q/D57E/D86V/E43K/F76Y/K127E/L162R/M171V/P40G/Q125H/Q99D/R33Q/R42Y/R54Q/S133A/S66F/T210M/V115G/Y107V/Y59L/Y89S); test: biochemical; type: binding
T8 construct: endogenous in cells; host or cells: Pitout

DRB1*0405 (DR4w15) = target: T9, DRB1*0405 (DR4w15) (Homo sapiens, UniProt P01903+P01911, A100R/A169T/D86S/F76Y/I96L/K127E/L162R/M171V/N62H/P40V/Q125Y/R42H/S133A/S149N/S66Y/V115G/V209L/W38E); test: HLA class II peptide binding assay; conditions: for DR4w15 binding data: Table XIXb; for DR4w15 binding information: DR3a motif peptides, unit not given, exemplary 15-mer containing the core sequence
T9 construct: endogenous in cells; host or cells: KT3

HLA-A*0301 = target: T10, HLA-A*0301 (Homo sapiens, UniProt P04439); test: HLA class I peptide binding assay; conditions: for A*0301 (binding information): Malaria A3 motif peptides, Table XVI
T10 construct: endogenous in cells; host or cells: GM3107

DRB1*0301 (DR3) = target: T11, DRB1*0301 (DR3) (Homo sapiens, UniProt P01903+P01911, A100K/A102G/A103R/A169T/F55Y/I96L/K41T/L162R/M171V/P40S/Q125H/Q178H/Q39Y/R42S/S66N/T106N/T262R/W38E/Y61H); test: HLA class II peptide binding assay (pH 4.5); conditions: for DR3 binding information: DR3a motif peptides, unit not given, exemplary 15-mer containing the core sequence
T11 construct: endogenous in cells; host or cells: MAT

[1] = malaria A11 motif peptides, binding value unit not given
[2] = Malaria A11 motif peptides, binding value for HLA-A*1101, unit not given
[3] = Malaria A11 motif peptides, HLA-A*1101 binding value, unit not given

T6 sequence (P01903 26-254, other chains not shown): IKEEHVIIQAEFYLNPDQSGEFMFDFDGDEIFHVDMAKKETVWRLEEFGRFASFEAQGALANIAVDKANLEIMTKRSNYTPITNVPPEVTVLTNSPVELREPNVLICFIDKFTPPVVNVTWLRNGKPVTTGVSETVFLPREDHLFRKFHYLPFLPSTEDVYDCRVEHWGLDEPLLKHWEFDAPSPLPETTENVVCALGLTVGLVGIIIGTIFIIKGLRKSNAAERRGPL
T5 sequence (P01903 26-254 partner, other chains not shown): as the sequence (P01903 26-254, other chains not shown) above
T4 sequence (P01903 26-254 partner, other chains not shown): as the sequence (P01903 26-254, other chains not shown) above

Sequence | DR5w12 binding data (DRB1*1201 (DR5w12)) | DR8w2 binding data (DRB1*0802 (DR8w2)) | DR4w4 binding data (DRB1*0401 (DR4w4)) | DR1 binding data (DRB1*0101 (DR1)) | DR5w11 binding data (DRB1*1101 (DR5w11)) | DR2w2β2 binding data (DRB5*0101 (DR2w2β2)) | DR7 binding data (DRB1*0701 (DR7)) | DR4w15 binding data (DRB1*0405 (DR4w15)) | further results
FDEILGEEDK | – | – | – | – | – | – | – | – | A*1101 binding information (HLA-A*1101; [1]): 0.0002
LGVSENTIFLK | – | – | – | – | – | – | – | – | A*1101 binding information (HLA-A*1101; [2]): 0.0063
WDEWSPCSV | 0.0001 | -0.0003 | -0.0007 | 0.0001 | -0.0002 | -0.0006 | -0.0003 | -0.0014 | DRw53 binding data (DRB4*0101 (DRw53)): -0.0006
FVEALFQEY | – | – | – | – | – | – | – | – | A*1101 binding information (HLA-A*1101; [3]): 0.0003
KSLYDEHIIK | – | – | – | – | – | – | – | – | A*1101 binding information (HLA-A*1101; [2]): 0.0340
LAMKLIQQL | 0.1300 | 0.0400 | 0.0023 | 0.0015 | 0.0002 | -0.0006 | 0.0770 | 0.0013 | DRw53 binding data (DRB4*0101 (DRw53)): 0.0350
LSTNLPYGR | – | – | 0.0120 | 0.0012 | – | – | 0.0005 | – | A*0301 (binding information) (HLA-A*0301; binding value to HLA-A*0301, unit not given): 0.0004; A*301 (binding data) (HLA-A*0301; Malaria A03 supermotif peptides, Table IX): 0.0004; A*1101 binding information (HLA-A*1101; [1]): 0.0100
CCKGIRSRKR | – | – | – | – | – | – | – | – | A*1101 binding information (HLA-A*1101; [1]): 0.0002
LGGVGLVLY | 0.0004 | -0.0002 | 0.0032 | 0.4900 | -0.0062 | -0.005 | 0.0007 | -0.0009 | A*0301 (binding information) (HLA-A*0301; binding value for HLA-A*0301, unit not given): 0.0001; A*1101 binding information (HLA-A*1101; [3]): 0.0002
IVDELSEDI | – | – | – | – | – | – | – | – | DR5w12 binding information (DRB1*1201 (DR5w12)): 0.0001; DR8w2 binding information (DRB1*0802 (DR8w2)): -0.0003; DRw53 binding information (DRB4*0101 (DRw53)): 0.0290; DR3 binding information (DRB1*0301 (DR3)): -0.0041; DR4w4 binding information (DRB1*0401 (DR4w4)): 0.0027; DR1 binding information (DRB1*0101 (DR1)): 0.0001; DR5w11 binding information (DRB1*1101 (DR5w11)): -0.0002; DR2w2β2 binding information (DRB5*0101 (DR2w2β2)): -0.0005; DR7 binding information (DRB1*0701 (DR7)): -0.0003; DR4w15 binding information (DRB1*0405 (DR4w15)): 0.0017
INRENANQL | – | – | – | – | – | – | – | – | DR5w12 binding information (DRB1*1201 (DR5w12)): 0.0001; DR8w2 binding information (DRB1*0802 (DR8w2)): -0.0003; DRw53 binding information (DRB4*0101 (DRw53)): 0.0096; DR3 binding information (DRB1*0301 (DR3)): 0.0092; DR4w4 binding information (DRB1*0401 (DR4w4)): 0.0011; DR1 binding information (DRB1*0101 (DR1)): 0.0770; DR5w11 binding information (DRB1*1101 (DR5w11)): -0.0004; DR2w2β2 binding information (DRB5*0101 (DR2w2β2)): 0.0015; DR7 binding information (DRB1*0701 (DR7)): -0.0003; DR4w15 binding information (DRB1*0405 (DR4w15)): 0.0010
VEVEKTASC | – | – | – | – | – | – | – | – | DR5w12 binding information (DRB1*1201 (DR5w12)): 0.0001; DR8w2 binding information (DRB1*0802 (DR8w2)): 0.0006; DRw53 binding information (DRB4*0101 (DRw53)): 0.0022; DR3 binding information (DRB1*0301 (DR3)): -0.0041; DR4w4 binding information (DRB1*0401 (DR4w4)): 0.0030; DR1 binding information (DRB1*0101 (DR1)): 0.0001; DR5w11 binding information (DRB1*1101 (DR5w11)): 0.0003; DR2w2β2 binding information (DRB5*0101 (DR2w2β2)): -0.0006; DR7 binding information (DRB1*0701 (DR7)): 0.0073; DR4w15 binding information (DRB1*0405 (DR4w15)): -0.0014
KGKKYEKIK | – | – | – | – | – | – | – | – | A*0301 (binding information) (HLA-A*0301; HLA-A*0301 binding value, unit not given): 0.0002; A*1101 binding information (HLA-A*1101; [2]): 0.0002
YGRLEIPAI | 0.0002 | 0.0021 | -0.0007 | 0.0004 | -0.0002 | -0.0005 | -0.0003 | 0.0170 | DRw53 binding data (DRB4*0101 (DRw53)): -0.0005
LALLACAGL | 0.0051 | 0.0003 | -0.0007 | 0.0018 | -0.0002 | 0.0013 | 0.0009 | -0.0014 | DRw53 binding data (DRB4*0101 (DRw53)): -0.0005
SLYDEHRKY | – | – | – | – | – | – | – | – | A*1101 binding information (HLA-A*1101; [1]): 0.0045
LHEGCTSEL | 0.0001 | -0.0003 | -0.0009 | 0.0001 | -0.0002 | -0.0005 | -0.0003 | -0.0014 | DR3 binding data (DRB1*0301 (DR3); Table XIXb, DR3): -0.0041
EDMCYFMK | – | – | – | – | – | – | – | – | A*1101 binding information (HLA-A*1101; [2]): 0.0003
NSEDRETPPH | – | – | – | – | – | – | – | – | A*1101 binding information (HLA-A*1101; [1]): 0.0002
